The source of these data is article PMC10983791.

Substrate in data set [1]: NCCc1c[nH]cn1
As to the kind of experiment: purified protein, by the assay type. As to conditions: other: HNMT; SAM 100 μM; MTase-Glo readout; pH 8.0.

Substrate in data set [2]: C[S+](CC[C@H](N)C(=O)[O-])C[C@H]1O[C@@H](n2cnc3c(N)ncnc32)[C@H](O)[C@@H]1O
As to the kind of experiment: KM determination by method of initial rates, HNMT. The format is biochemical, human. The settings on record: other: HNMT; substrate 100 μM; MTase-Glo readout; pH 8.0.

Substrate in data set [3]: NC(=O)c1cccnc1
The experiment in a line: purified protein, by the assay type. The settings on record: other: NNMT; SAM 100 μM; MTase-Glo readout; pH 8.0.

Substrate in data set [4]: C[S+](CC[C@H](N)C(=O)[O-])C[C@H]1O[C@@H](n2cnc3c(N)ncnc32)[C@H](O)[C@@H]1O
The experiment in a line: KM determination by method of initial rates, NNMT. The format is biochemical, human. The settings on record: other: NNMT; substrate 100 μM; MTase-Glo readout; pH 8.0.

Substrate in data set [5]: C[S+](CC[C@H](N)C(=O)[O-])C[C@H]1O[C@@H](n2cnc3c(N)ncnc32)[C@H](O)[C@@H]1O
The experiment in a line: KM determination by method of initial rates, PNMT. Format: biochemical, human. The settings on record: other: PNMT; norepinephrine 100 μM; pH 8.0.

Substrate in data set [6]: NC[C@H](O)c1ccc(O)c(O)c1
The experiment in a line: KM determination by method of initial rates, PNMT. The format is biochemical, human. As to conditions: other: PNMT; SAM 100 μM; fit to substrate inhibition model; pH 8.0.

Substrate in data set [7]: C[S+](CC[C@H](N)C(=O)[O-])C[C@H]1O[C@@H](n2cnc3c(N)ncnc32)[C@H](O)[C@@H]1O
As to the kind of experiment: KM determination by method of initial rates, GNMT. Format: biochemical, human. The settings on record: other: GNMT; substrate 100 μM; MTase-Glo readout; pH 8.0.

Substrate in data set [8]: C[S+](CC[C@H](N)C(=O)[O-])C[C@H]1O[C@@H](n2cnc3c(N)ncnc32)[C@H](O)[C@@H]1O
The experiment in a line: KM determination by method of initial rates, COMT. Format: biochemical, human. The settings on record: other: COMT; substrate 100 μM; MTase-Glo readout; pH 8.0.

Substrate in data set [9]: NC[C@H](O)c1ccc(O)c(O)c1
The experiment in a line: KM determination by method of initial rates, COMT. Format: biochemical, human. The settings on record: other: COMT; SAM 100 μM; MTase-Glo readout; pH 8.0.

B1: HNMT (Homo sapiens) (protein)
chain: MASSMRSLFSDHGKYVESFRRFLNHSTEHQCMQEFMDKKLPGIIGRIGDTKSEIKILSIGGGAGEIDLQILSKVQAQYPGVCINNEVVEPSAEQIAKYKELVAKTSNLENVKFAWHKETSSEYQSRMLEKKELQKWDFIHMIQMLYYVKDIPATLKFFHSLLGTNAKMLIIVVSGSSGWDKLWKKYGSRFPQDDLCQYITSDDLTQMLDNLGLKYECYDLLSTMDISDCFIDGNENGDLLWDFLTETCNFNATAPPDLRAELGKDLQEPEFSAKKEGKVLFNNTLSFIVIEA
A word on the Km: it is the concentration of substrate that gives half-maximal velocity. Consider B1, for which the values for the Km in data set [1] and in data set [2] were 5.3 ± 2.1 µM and 9.3 ± 2.1 µM, respectively.

B2: NNMT (Homo sapiens) (protein)
chain: MESGFTSKDTYLSHFNPRDYLEKYYKFGSRHSAESQILKHLLKNLFKIFCLDGVKGDLLIDIGSGPTIYQLLSACESFKEIVVTDYSDQNLQELEKWLKKEPEAFDWSPVVTYVCDLEGNRVKGPEKEEKLRQAVKQVLKCDVTQSQPLGAVPLPPADCVLSTLCLDAACPDLPTYCRALRNLGSLLKPGGFLVIMDALKSSYYMIGEQKFSSLPLGREAVEAAVKEAGYTIEWFEVISQSYSSTMANNEGLFSLVARKLSRPL
On to B2, for which the Km in data set [3] was 3.8 ± 0.5 µM; in data set [4], 11.9 ± 5.7 µM.

B3: PNMT (Homo sapiens) (protein)
chain: MSGADRSPNAGAAPDSAPGQAAVASAYQRFEPRAYLRNNYAPPRGDLCNPNGVGPWKLRCLAQTFATGEVSGRTLIDIGSGPTVYQLLSACSHFEDITMTDFLEVNRQELGRWLQEEPGAFNWSMYSQHACLIEGKGECWQDKERQLRARVKRVLPIDVHQPQPLGAGSPAPLPADALVSAFCLEAVSPDLASFQRALDHITTLLRPGGHLLLIGALEESWYLAGEARLTVVPVSEEEVREALVRSGYKVRDLRTYIMPAHLQTGVDDVKGVFFAWAQKVGL
Take B3: the values for the Michaelis-Menten constant (Km) in data set [5] and in data set [6] were 3.6 ± 0.6 µM and 16.2 ± 4.3 µM, respectively.

B4: GNMT (Homo sapiens) (protein)
chain: MVDSVYRTRSLGVAAEGLPDQYADGEAARVWQLYIGDTRSRTAEYKAWLLGLLRQHGCQRVLDVACGTGVDSIMLVEEGFSVTSVDASDKMLKYALKERWNRRHEPAFDKWVIEEANWMTLDKDVPQSAEGGFDAVICLGNSFAHLPDCKGDQSEHRLALKNIASMVRAGGLLVIDHRNYDHILSTGCAPPGKNIYYKSDLTKDVTTSVLIVNNKAHMVTLDYTVQVPGAGQDGSPGLSKFRLSYYPHCLASFTELLQAAFGGKCQHSVLGDFKPYKPGQTYIPCYFIHVLKRTD
For B4, in data set [7], the Km stood at 12.1 ± 3.6 µM.

B5: COMT (Homo sapiens) (protein)
chain: MPEAPPLLLAAVLLGLVLLVVLLLLLRHWGWGLCLIGWNEFILQPIHNLLMGDTKEQRILNHVLQHAEPGNAQSVLEAIDTYCEQKEWAMNVGDKKGKIVDAVIQEHQPSVLLELGAYCGYSAVRMARLLSPGARLITIEINPDCAAITQRMVDFAGVKDKVTLVVGASQDIIPQLKKKYDVDTLDMVFLDHWKDRYLPDTLLLEECGLLRKGTVLLADNVICPGAPDFLAHVRGSSCFECTHYQSFLEYREVVDGLEKAIYKGPGSEAGP
As for B5, the Km in data set [8] was 14.5 ± 1.8 µM; in data set [9], 13.7 ± 2.2 µM.
